{"source": "patent US7521540B2", "about": "“CYR61 compositions and methods” (Munin Corporation, priority 1996, dated 2009)", "molecules": {"B1": {"name": "Cyr61: Cysteine-rich ECM signaling protein; murine sequence SEQ ID NO:2, recombinant from Baculovirus-infected Sf9 cells (protein, listed as Mus musculus)", "chain": "MSSSTFRTLAVAVTLLHLTRLALSTCPAACHCPLEAPKCAPGVGLVRDGCGCCKVCAKQLNEDCSKTQPCDHTKGLECNFGASSTALKGICRAQSEGRPCEYNSRIYQNGESFQPNCKHQCTCIDGAVGCIPLCPQELSLPNLGCPNPRLVKVSGQCCEEWVCDEDSIKDSLDDQDDLLGLDASEVELTRNNELIAIGKGSSLKRLPVFGTEPRVLFNPLHAHGQKCIVQTTSWSQCSKSCGTGISTRVTNDNPECRLVKETRICEVRPCGQPVYSSLKKGKKCSKTKKSPEPVRFTYAGCSSVKKYRPKYCGSCVDGRCCTPLQTRTVKMRFRCEDGEMFSKNVMMIQSCKCNYNCPHPNEASFRLYSLFNDIHKFRD"}}, "key": {"[1]": {"tested_on": "Human Microvascular Endothelial Cells", "test": "In vitro migration assay for angiogenesis inhibitors", "assay_type": "cell-based", "conditions": "bFGF 10 ng/ml; Cyr61; IGF-II", "protocol": "As in the preceding Example, human microvascular endothelial cells (Clonetics) were used. In one series of assays, several carbohydrates and carbohydrate derivatives were analyzed. These compounds included 10 mM mannose, 10 mM mannose-6-phosphate, and 10 mM galactose. […] Cyr61 plus galactose induced the migration of approximately 74 cells per set of three high-powered fields. […] The angiogenic activity of basic FGF (10 ng/ml) was also tested, as described above, with and without mannose-6-phosphate. In the presence of 10 mM mannose-6-phosphate, bFGF induced 51 cells per set of three high-powered fields to migrate; in its absence, bFGF induced the migration of approximately 52 cells. […] The effect of mannose-6-phosphate on IGF II activity was anticipated because mannose-6-phosphate is known to compete with IGF II for their common receptor (the IGF II receptor). […] Moreover, because there is an essentially perfect correlation between the in vitro migration assay and the in vivo angiogenesis assay, described below, mannose-6-phosphate has been identified as an inhibitor of angiogenesis based on the results of the assay disclosed herein. Accordingly, the invention contemplates a method of inhibiting angiogenesis comprising the step of administering an inhibitor the angiogenic activity of Cyr61 such as mannose-6-phosphate. […]"}, "αVβ3 integrin": {"target": "T1, αVβ3 integrin (Homo sapiens, UniProt P05106+P06756)", "T1 construct": "αVβ3 integrin purification from HUVE cell lysates was done as described in Pytela et al; endogenous in cells; host or cells: HUVE cells", "T1 sequence (P06756 31-889 limits assumed)": "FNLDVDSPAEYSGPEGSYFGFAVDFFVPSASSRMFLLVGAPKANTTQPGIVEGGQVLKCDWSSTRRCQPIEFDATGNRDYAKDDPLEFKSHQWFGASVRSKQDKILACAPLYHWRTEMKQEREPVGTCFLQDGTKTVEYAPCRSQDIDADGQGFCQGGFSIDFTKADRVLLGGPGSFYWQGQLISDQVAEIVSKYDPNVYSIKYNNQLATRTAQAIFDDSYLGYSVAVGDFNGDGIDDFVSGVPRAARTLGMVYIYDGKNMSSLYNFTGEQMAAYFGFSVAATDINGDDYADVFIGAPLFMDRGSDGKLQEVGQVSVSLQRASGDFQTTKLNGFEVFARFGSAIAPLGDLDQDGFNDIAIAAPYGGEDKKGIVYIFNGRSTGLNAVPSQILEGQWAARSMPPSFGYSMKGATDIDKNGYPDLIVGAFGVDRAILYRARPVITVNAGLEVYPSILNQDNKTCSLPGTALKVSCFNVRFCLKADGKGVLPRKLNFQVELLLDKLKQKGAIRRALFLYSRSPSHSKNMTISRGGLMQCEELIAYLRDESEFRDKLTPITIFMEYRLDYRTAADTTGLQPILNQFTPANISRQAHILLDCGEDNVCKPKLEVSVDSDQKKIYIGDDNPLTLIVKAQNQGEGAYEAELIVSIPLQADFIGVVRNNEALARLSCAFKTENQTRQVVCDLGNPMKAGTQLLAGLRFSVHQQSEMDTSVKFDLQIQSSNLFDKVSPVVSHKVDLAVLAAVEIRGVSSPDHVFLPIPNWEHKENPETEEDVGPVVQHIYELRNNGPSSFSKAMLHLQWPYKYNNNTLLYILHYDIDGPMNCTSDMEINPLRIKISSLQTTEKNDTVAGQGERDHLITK", "T1 sequence (P06756 891-1048 partner limits assumed)": "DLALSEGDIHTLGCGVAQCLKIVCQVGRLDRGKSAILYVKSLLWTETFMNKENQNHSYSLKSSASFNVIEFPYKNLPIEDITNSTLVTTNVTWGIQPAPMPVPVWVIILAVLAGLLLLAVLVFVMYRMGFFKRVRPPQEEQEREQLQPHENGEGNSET", "T1 sequence (P05106 27-788)": "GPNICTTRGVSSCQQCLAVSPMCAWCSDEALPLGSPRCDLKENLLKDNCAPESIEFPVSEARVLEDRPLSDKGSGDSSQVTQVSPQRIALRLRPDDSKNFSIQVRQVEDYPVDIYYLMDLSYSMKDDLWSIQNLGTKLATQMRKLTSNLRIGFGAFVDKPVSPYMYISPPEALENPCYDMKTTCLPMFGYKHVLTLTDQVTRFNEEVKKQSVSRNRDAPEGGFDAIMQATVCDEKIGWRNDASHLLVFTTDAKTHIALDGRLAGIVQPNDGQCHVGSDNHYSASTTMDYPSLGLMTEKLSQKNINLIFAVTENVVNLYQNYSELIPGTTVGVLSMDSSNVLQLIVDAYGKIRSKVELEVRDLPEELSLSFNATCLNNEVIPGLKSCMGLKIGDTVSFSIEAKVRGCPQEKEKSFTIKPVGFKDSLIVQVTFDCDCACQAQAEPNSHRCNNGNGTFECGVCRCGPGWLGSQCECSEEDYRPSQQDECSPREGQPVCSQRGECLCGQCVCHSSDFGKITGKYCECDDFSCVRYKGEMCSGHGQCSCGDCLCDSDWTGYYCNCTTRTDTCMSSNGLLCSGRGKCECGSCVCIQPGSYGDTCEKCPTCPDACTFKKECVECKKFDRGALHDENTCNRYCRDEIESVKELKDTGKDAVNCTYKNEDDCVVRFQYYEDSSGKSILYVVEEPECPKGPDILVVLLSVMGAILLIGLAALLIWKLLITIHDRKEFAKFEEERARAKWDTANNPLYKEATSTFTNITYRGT", "test": "Integrin binding assay (ligand-receptor ELISA)", "conditions": "1 μg/ml Cyr61 or 0.1 μg/ml vitronectin", "protocol": "αVβ3 integrin purification from HUVE cell lysates was done as described in Pytela et al., Meth. Enzynmol., 144:475-489 (1987). Briefly, 10^8 cells were lysed in 1 ml of PBS containing 1 mM CaCl2, 1 mM MgCl2, 0.5 mM PMSF and 100 mM octylglucoside. […] The purity of the integrin was determined by SDS-PAGE under non-reducing conditions, followed by silver staining.\nThe integrin binding assay was developed in accordance with the disclosures in Brooks et al., Cell 85:683-693 (1996), and Lam, S. C-T (1992). […] Bound proteins were detected by specific polyclonal antisera (anti-Cyr61 antiserum was diluted 1:500 and anti-vitronectin antiserum was diluted 1:1000 in PBS containing 1 mM CaCl2, 1 mM MgCl2, and 5 mg/ml BSA) followed by a secondary antibody-horseradish peroxidase conjugate (1:20000 in the same buffer). […] Horseradish peroxidase (HRP) was detected with an HRP immunoassay kit (Bio-Rad Laboratories). The colorimetric reaction was developed for 15-30 minutes at room temperature, stopped by the addition of H2SO4, and the absorbance at 450 nm was measured. […]"}, "Limb mesenchymal cells": {"tested_on": "Limb mesenchymal cells", "test": "Chondrogenesis, [35S]-sulfate incorporation in micromass cultures", "assay_type": "cell-based, mouse", "protocol": "Cell proliferation was assessed by the thymidine assay, described above, and by microscopic cell counts. Chondrogenesis was assessed by quantifying the incorporation of [^35S]-sulfate (ICN Biomedicals, Inc.) into sulfated glycosaminoglycans, and by qualitatively determnining the extent of chondrogenesis by cell staining with Alcian Blue. Cultures, described above, were labeled with 2.5 μCi/ml [^35S]-sulfate for 18 hours, washed twice in PBS, fixed with Kahle's fixative (Pepper et al., J. Cell Sci. 109:73-83 [1995]) and stained for 18 hours in 0.5% Alcian Blue, pH 1.0. The extent of chondrogenesis is correlated with the intensity of Alcian Blue staining. San Antonio et at., Dev. Biol. 115:313-324 (1986).\nChondrogenic differentiation was quantitated by incorporation of […] (ICN) into sulfated glycosaminoglycans and assessed qualitatively by Alcian Blue staining. Cultures were radiolabeled with 2.5 μCi/ml [^35S]-sulfate for 18 hr, fixed with Kahle's fixative and stained with 0.5% Alcian Blue, pH 1.0 (Lev et al., 1964). The extent of chondrogenesis is correlated with the intensity of Alcian Blue staining (San Antonio et al., 1986). [^35S]-Sulfate incorporation in the fixed cell layer was quanititated by liquid scintillation counting.\nAs shown above in Example 11, anti-Cyr61 antibodies can neutlralize both the cell adhesion and DNA-synthesis enhancement activities of Cyr61. Anti-Cyr61 antibodies were added to the mesenchymal cell culture media or mixed the cell suspension prior to plating. […] These observations were correlated with decreased Alcian Blue staining."}, "[2]": {"tested_on": "Bovine aortic smooth muscle cells (BASM cells)", "test": "Smooth muscle cell adhesion assay", "assay_type": "cell-based", "protocol": "Cell adhesion assays were also performed on smooth muscle cells. Bovine aortic smooth muscle cells (BASM cells) were subjected to the cell adhesion assay described above in the context of assaying fibroblasts. […] To identify particular integrin, receptors mediating the Cyr61 induction of BASM cell adhesion, antibody studies were conducted using anti-integrin antibodies recognizing specific integrins. […] Thus, integrin α6β1 mediates Cyr61-induced adhesion of smooth muscle cells. It is expected that Cyr61 polypeptides that include the heparan binding domain IV will induce adhesion of any mammalian smooth muscle cell."}}, "data": [{"molecule": "B1", "values": [{"measurement": "migrating cells, chemoattractant without mannose-6-phosphate", "setting": "[1]", "value": "approximately 48 cells"}, {"measurement": "binding to immobilized αVβ3 integrin", "setting": "αVβ3 integrin", "value": "bound to the immobilized integrin"}, {"measurement": "increase in [35S]-sulfate incorporation", "setting": "Limb mesenchymal cells; 0.3 μg/ml", "value": 1.5, "unit": "fold"}, {"measurement": "increase in [35S]-sulfate incorporation", "setting": "Limb mesenchymal cells; 5 μg/ml (120 nM)", "value": 3.5, "unit": "fold"}, {"measurement": "cartilage formation", "setting": "Limb mesenchymal cells; 10 μg/ml", "value": "formed a more massive mound of cartilage"}, {"measurement": "increase in normalized sulfate incorporation over control", "setting": "Limb mesenchymal cells; sulfate/cell number ratio", "value": "approximately 2 fold"}, {"measurement": "adhesion of BASM cells", "setting": "[2]", "value": "induced adhesion of BASM cells"}]}]}
